One test deals with T1, mouse RANTES/CCL5 (mouse, UniProt P30882 24-91).
T1 construct: also called muRANTES
Briefly: MSD electrochemiluminescence, chemokine coated at 1 µg/mL.

The target in the next test is T2, human MIP-1α/CCL3 (human, UniProt P10147 24-92).
T2 construct: also called Biotin-MIP-1α
T2 sequence: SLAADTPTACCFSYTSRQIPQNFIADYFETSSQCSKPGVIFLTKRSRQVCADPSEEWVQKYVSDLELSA
Briefly: ELISA, hybridoma fusion-well supernatant on coated MIP-1α; background approx. 0.150.

The target in another test is T3, mouse MIP-1α/CCL3 (mouse, UniProt P10855 24-92).
T3 construct: also called muMIP-1α
T3 sequence: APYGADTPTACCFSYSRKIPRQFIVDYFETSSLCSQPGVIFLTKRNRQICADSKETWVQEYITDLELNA
Kind of test: Binding (MSD).

The next test concerns the target T4, mouse MIP-1β/CCL4 (mouse, UniProt P14097 24-92).
T4 construct: also called muMIP-1β
T4 sequence: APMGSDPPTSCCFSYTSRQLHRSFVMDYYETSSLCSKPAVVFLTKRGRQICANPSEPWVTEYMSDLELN
Kind of test: Binding (MSD).

The next test concerns the target T5, human MIP-1β/CCL4 (human, UniProt Q8NHW4 24-92).
T5 construct: also called Biotin-MIP-1β
T5 chain: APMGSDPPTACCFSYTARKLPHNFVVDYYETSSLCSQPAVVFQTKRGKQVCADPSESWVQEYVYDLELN
Briefly: ELISA, hybridoma fusion-well supernatant on biotinylated chemokine on streptavidin plate; background approx. 0.150.

A further test deals with T6, human RANTES/CCL5 (human, UniProt P13501 24-91).
T6 construct: also called Biotin-RANTES
T6 sequence: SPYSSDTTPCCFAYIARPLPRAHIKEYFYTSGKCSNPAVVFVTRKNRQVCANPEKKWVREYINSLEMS
The description is as above.

Test [1] concerns the target T7, human MCP-1/CCL2 (human, UniProt P13500 24-99).
T7 construct: also called Biotin-MCP1
Described as above.

For a further test, the target named is T8, MCP-4.
T8 construct: also called MCP-4/CCL13; CCL13
Kind of test: MSD electrochemiluminescence assay; chemokine coated at 1 µg/mL, 7D1G at 3 µg/mL; background = BSA.

The next test has as its target T9, SDF.
T9 construct: also called SDF-1/CXCL12; CXCL12
The description is as above.

In the next test the target is T10, MCP-3.
T10 construct: also called MCP-3/CCL7; CCL7
The test is described as above.

The target of a further test is T11, HCC-4.
T11 construct: also called HCC-4/CCL16; CCL16
T11 chemokine: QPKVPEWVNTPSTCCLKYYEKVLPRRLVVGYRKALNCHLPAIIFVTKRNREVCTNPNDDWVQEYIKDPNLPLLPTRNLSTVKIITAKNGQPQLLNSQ
The test is described as above.

The target in a further test is T12, Eotaxin.
T12 construct: also called Eotaxin/CCL11; CCL11
Described as above.

Another test has as its target T13, MDC.
T13 construct: also called MDC/CCL22; CCL22
T13 chemokine: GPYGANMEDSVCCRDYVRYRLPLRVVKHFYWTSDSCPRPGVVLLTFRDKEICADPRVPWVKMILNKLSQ
The test is described as above.

The next test has as its target T14, Fractalkine.
T14 construct: also called Fractalkine/CX3CL1; CX3CL1
T14 chemokine: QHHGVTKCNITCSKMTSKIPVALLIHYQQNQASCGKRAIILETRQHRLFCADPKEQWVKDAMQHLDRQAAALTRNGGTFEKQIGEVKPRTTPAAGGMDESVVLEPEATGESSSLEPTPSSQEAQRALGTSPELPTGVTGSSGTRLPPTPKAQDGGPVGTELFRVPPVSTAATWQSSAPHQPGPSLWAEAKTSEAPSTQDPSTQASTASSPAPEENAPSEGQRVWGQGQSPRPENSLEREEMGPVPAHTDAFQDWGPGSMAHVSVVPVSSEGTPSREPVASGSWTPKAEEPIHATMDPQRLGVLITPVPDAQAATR
Described as above.

In a further test the target is T15, I-309.
T15 construct: also called I-309/CCL1; CCL1
T15 chemokine: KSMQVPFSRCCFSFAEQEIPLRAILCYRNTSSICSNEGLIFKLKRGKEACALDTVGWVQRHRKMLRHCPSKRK
Described as above.

Test [2] concerns the target T7, human MCP-1/CCL2. The description is as above.
The target of the next test is T16, IL-8.
T16 construct: also called IL-8/CXCL8; CXCL8
The test is described as above.

In a further test the target is T17, human HCC-1/CCL14/CCL14a (human, UniProt Q16627 28-93).
T17 sequence: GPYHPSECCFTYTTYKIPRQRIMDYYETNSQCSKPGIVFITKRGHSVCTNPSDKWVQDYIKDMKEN
Described as above.

In the next test the target is T18, MCP-2.
T18 construct: also called MCP-2/CCL8; CCL8
T18 chemokine: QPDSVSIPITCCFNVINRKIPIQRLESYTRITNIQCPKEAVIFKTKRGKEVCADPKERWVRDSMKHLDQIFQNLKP
The test is described as above.

T7 sequence (P13500 24-99 limits assumed): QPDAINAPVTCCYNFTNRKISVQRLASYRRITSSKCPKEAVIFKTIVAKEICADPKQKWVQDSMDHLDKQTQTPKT
T9 sequence (chemokine, as listed by the source): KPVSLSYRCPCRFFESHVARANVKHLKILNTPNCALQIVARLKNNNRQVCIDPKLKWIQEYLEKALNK
T16 sequence (chemokine, as listed by the source): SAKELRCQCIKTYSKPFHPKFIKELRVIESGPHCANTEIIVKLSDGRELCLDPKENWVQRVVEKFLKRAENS
T10 sequence (chemokine, as listed by the source): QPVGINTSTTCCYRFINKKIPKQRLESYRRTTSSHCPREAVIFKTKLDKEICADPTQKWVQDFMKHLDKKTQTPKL
T1 sequence (P30882 24-91 limits assumed): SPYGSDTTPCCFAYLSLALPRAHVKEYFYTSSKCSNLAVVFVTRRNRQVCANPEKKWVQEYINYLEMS
T8 sequence (chemokine, as listed by the source): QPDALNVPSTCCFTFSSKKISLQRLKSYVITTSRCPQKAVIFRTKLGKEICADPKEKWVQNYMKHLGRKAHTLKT
T12 sequence (chemokine, as listed by the source): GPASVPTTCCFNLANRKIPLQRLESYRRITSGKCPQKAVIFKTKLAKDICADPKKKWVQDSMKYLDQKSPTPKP

B1: monoclonal antibody 7D1G (antibody, V domains shown)
VH: QVQLQQPGAELVKPGASVKMSCKASGYTFTSYNIHWVKQTPGQGLEWIGAVSPRNGDTSYNQRFKGKATLTADISSSTAYMQLSSLTSEDSAVYYCARGYGYDYWGQGTTLTVSS
VL: DVVLTQSPATLSVTPGDRVSLSCRASQSVSKYLHWYQQKSHESPRLLIKYVSQSISGIPSRFSGSGSGTDFTLSINSVETEDLGMYFCQQSNSWPHTFGAGTKLELK
notes: also called MAb 7D1G
Turning to B1, the binding result with mouse RANTES/CCL5 is recorded as “no binding (tested: 3 µg/mL)”; in the test with mouse MIP-1α/CCL3 it was “binds”; in the test with mouse MIP-1β/CCL4, “binds”; with MCP-4, “no binding (tested: 3 µg/mL)”; with SDF it was “no binding (tested: 3 µg/mL)”; with MCP-3 it was “no binding (tested: 3 µg/mL)”. Besides, the binding result with HCC-4, with Eotaxin, with MDC, in the test with Fractalkine, with I-309 and with human MCP-1/CCL2 [2] was “no binding (tested: 3 µg/mL)” each time. Also, the binding result is on record as “no binding (tested: 3 µg/mL)” with IL-8, “binds” with human HCC-1/CCL14/CCL14a and “no binding (tested: 3 µg/mL)” in the test with MCP-2. The ELISA signal stood at 1.7 with human MIP-1α/CCL3, 2.57 with human MIP-1β/CCL4, 0.145 with human RANTES/CCL5 and 0.22 with human MCP-1/CCL2 [1].
